B1: human NKG2D-Fc (Fc fusion)
chain: FLNSLFNQEVQIPLTESYCGPCPKNWICYKNNCYQFFDESKNWYESQASCMSQNASLLKVYSKEDQDLLKLVKSYHWMGLVHIPTNGSWQWEDGSILSPNLLTIIEMQKGDCALYASSFKGYIENCSTPNTYICMQRTV
notes: also called natural NKG2D-Fc; not shown: Fc part

Tests used:
OMCP-α3-iFv.2 = target: T1, OMCP-α3-iFv.2; assay: ELISA: protein captured on FGFR3 detected with NKG2D-Fc
T1 construct: also called NKG2DL-α3-iFv.2 (OMCP)

[1] = target: T2, biotinylated human NKG2D (Example 3) (human, UniProt P26718 78-216, limits assumed, biotinylated (site not stated)); assay: biolayer interferometry (Octet), Kd = kOFF/kON
T2 construct: also called recombinant biotinylated NKG2D; surface coated biotinylated human NKG2D
T2 sequence (looked up): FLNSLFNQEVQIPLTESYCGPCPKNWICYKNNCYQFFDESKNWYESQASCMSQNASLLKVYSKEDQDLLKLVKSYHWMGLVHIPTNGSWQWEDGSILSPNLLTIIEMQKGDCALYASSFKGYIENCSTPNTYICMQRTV

human NKG2D-Fc = target: B1; assay: competition ELISA: inhibits 2 nM human NKG2D-Fc binding to plate-coated WT sMICA
[2] = target: T2, biotinylated human NKG2D (Example 3); assay: biolayer interferometry (Octet), biotinylated human NKG2D on the surface, 100 nM analyte
ULBP4-Fc = target: T3, ULBP4-Fc (UniProt Q8TD07 31-225); assay: plate ELISA: biotinylated natural NKG2D ectodomain titrated on coated ligand-Fc
T3 construct: Bought, R&D Systems; not shown: Fc part of the bought reagent
T3 sequence (looked up): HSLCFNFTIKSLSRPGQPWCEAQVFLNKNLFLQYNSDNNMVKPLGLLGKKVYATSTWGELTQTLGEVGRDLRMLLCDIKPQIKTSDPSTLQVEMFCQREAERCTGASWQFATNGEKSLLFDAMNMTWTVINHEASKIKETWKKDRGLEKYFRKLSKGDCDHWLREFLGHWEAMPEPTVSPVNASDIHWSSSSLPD

MICwed-Fc = assay: ELISA: ligand-Fc coated at 2 ug/ml, biotinylated NKG2D ectodomain titrated, streptavidin-HRP
MICB-Fc = target: T4, MICB-Fc (UniProt Q29980 23-298); assay: as above
T4 construct: Bought, R&D Systems; not shown: Fc part of the bought reagent
T4 sequence (looked up): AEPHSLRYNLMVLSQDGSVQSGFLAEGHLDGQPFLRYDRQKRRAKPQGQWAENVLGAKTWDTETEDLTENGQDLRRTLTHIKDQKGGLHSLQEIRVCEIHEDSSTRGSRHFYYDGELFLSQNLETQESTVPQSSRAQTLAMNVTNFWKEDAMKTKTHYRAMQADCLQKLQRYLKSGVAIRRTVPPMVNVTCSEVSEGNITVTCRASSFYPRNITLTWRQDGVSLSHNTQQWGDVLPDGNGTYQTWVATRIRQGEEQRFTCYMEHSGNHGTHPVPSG

ULBP1-Fc = target: T5, ULBP1-Fc (UniProt Q9BZM6 26-216); assay: as above
T5 construct: Bought, R&D Systems; not shown: Fc part of the bought reagent
T5 sequence (looked up): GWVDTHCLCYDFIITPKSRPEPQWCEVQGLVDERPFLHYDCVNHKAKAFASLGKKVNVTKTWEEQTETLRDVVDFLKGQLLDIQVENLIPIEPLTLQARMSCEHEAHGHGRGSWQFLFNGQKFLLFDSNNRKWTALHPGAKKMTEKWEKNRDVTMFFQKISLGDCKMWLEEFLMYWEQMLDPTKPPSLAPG

ULBP2-Fc = target: T6, ULBP2-Fc (UniProt Q9BZM5 26-217); assay: as above
T6 construct: Bought, R&D Systems; not shown: Fc part of the bought reagent
T6 sequence (looked up): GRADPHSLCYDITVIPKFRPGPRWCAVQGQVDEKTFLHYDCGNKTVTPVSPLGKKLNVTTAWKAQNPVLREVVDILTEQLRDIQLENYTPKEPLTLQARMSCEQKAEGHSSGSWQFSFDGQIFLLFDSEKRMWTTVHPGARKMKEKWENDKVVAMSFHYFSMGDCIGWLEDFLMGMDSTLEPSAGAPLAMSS

ULBP3-Fc = target: T7, ULBP3-Fc (UniProt Q9BZM4 30-217); assay: as above
T7 construct: Bought, R&D Systems; not shown: Fc part of the bought reagent
T7 sequence (looked up): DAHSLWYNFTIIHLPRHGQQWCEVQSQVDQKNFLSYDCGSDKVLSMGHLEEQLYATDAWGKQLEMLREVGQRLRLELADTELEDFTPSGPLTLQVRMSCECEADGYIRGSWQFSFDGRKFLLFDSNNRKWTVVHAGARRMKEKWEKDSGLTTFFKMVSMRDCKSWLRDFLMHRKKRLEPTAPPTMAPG

## B1
OMCP-α3-iFv.2
  binding result: binds

B2: WT α1-α2 soluble MICA protein (Example 3) (ligand)
chain: EPHSLRYNLTVLSWDGSVQSGFLTEVHLDGQPFLRCDRQKCRAKPQGQWAEDVLGNKTWDRETRDLTGNGKDLRMTLAHIKDQKEGLHSLQEIRVCEIHEDNSTRSSQHFYYDGELFLSQNLETKEWTMPQSSRAQTLAMNVRNFLKEDAMKTKTHYHAMHADCLQELRRYLKSGVVLRRTVPPMVQVTRSEASGGSGDRVTITCRASQDVSTAVAWYQQKPGKAPKLLIYSASFLYSGVPSRFSGSGSGTDFTLTISSLQPEDFATYYCQQSYTTPPTFGQGTKVEIKGGSSRSSSSGGGGSGGGGEVQLVESGGGLVQPGGSLRLSCAASGFTFTSTGISWVRQAPGKGLEWVGRIYPTNGSTNYADSVKGRFTISADTSKNTAYLQMNSLRAEDTAVYYCARTYGIYDLYVDYTEYVMDYWGQGTLVTVSSGGSSRSSSSGGGGSGGGGDIQMTQSPSSLSASGGSGQITVTCRASGFYPWNITLSWRQDGVSLSHDTQQWGDVLPDGQGTYQTWVATRISQGEEQRFTCYMEHSGQHSTHPVPSGKGSHHHHHH
notes: also called WT NKG2DL; WT MICA
[1]
  Kd: 13.8 nM
Human NKG2D-Fc
  IC50: 19.4 nM
[2]
  koff: 0.0018 s⁻¹
  kon: 130000 M⁻¹ s⁻¹

B3: His-avitag-natural NKG2D (receptor)
chain: EPHHHHHHGLNDIFEAQKIEWHENSLFNQEVQIPLTESYCGPCPKNWICYKNNCYQFFDESKNWYESQASCMSQNASLLKVYSKEDQDLLKLVKSYHWMGLVHIPTNGSWQWEDGSILSPNLLTIIEMQKGDCALYASSFKGYIENCSTPNTYICMQRTV
modifications: biotin on the avitag sequence (BirA)
notes: also called natural NKG2D ectodomain; wild type NKG2D
ULBP4-Fc
  binding result: binds
MICwed-Fc
  EC50 (read off the curve): ~100 nM
MICB-Fc
  binding result: binds
ULBP1-Fc
  binding result: binds
ULBP2-Fc
  binding result: binds
ULBP3-Fc
  binding result: binds
